“And” between values parts separate entries of the source, which are not always exact repeats. Equal entries are not always repeated.
Experiments:
[1] = biological target: aggregated human IgG (aggregated Beriglobin, aggregated fraction isolated by size exclusion chromatography) (human); experiment: FACS competition on Raji cells (FACS007), inhibition of aggregated IgG binding to cell FcγRIIB at 0.125 µg/µL SM101
[2] = biological target: aggregated human IgG (aggregated Beriglobin, aggregated fraction isolated by size exclusion chromatography) (human); experiment: sigmoid logistic fit of FACS competition on Raji cells (FACS021): inhibition of aggregated IgG binding to cell FcγRIIB
[3] = biological target: aggregated human IgG (aggregated Beriglobin, aggregated fraction isolated by size exclusion chromatography) (human); experiment: FACS competition on Raji cells (FACS007), inhibition of aggregated IgG binding to cell FcγRIIB at 0.5 µg/µL SM101
[4] = biological target: aggregated human IgG (aggregated Beriglobin, aggregated fraction isolated by size exclusion chromatography) (human); experiment: sigmoid logistic fit of FACS competition on Raji cells (FACS007): inhibition of aggregated IgG binding to cell FcγRIIB
[5] = biological target: aggregated human IgG (aggregated Beriglobin, aggregated fraction isolated by size exclusion chromatography) (human); experiment: apparent KD, FACS competition on Raji cells (Example 1), as told in the description
[6] = biological target: aggregated human IgG (aggregated Beriglobin, aggregated fraction isolated by size exclusion chromatography) (human); experiment: FACS competition on Raji cells (FACS007), inhibition of aggregated IgG binding to cell FcγRIIB at 0.0078 µg/µL SM101
[7] = biological target: aggregated human IgG (aggregated Beriglobin, aggregated fraction isolated by size exclusion chromatography) (human); experiment: FACS competition on Raji cells (FACS007), inhibition of aggregated IgG binding to cell FcγRIIB at 0.0156 µg/µL SM101
[8] = biological target: aggregated human IgG (aggregated Beriglobin, aggregated fraction isolated by size exclusion chromatography) (human); experiment: apparent KD, FACS competition on Raji cells, mean of 25 experiments
[9] = biological target: aggregated human IgG (aggregated Beriglobin, aggregated fraction isolated by size exclusion chromatography) (human); experiment: apparent KD, Langmuir fit of FACS competition on Raji cells (FACS007)
[10] = biological target: aggregated human IgG (aggregated Beriglobin, aggregated fraction isolated by size exclusion chromatography) (human); experiment: apparent KA, Langmuir fit of FACS competition on Raji cells (FACS007)
[11] = biological target: aggregated human IgG (aggregated Beriglobin, aggregated fraction isolated by size exclusion chromatography) (human); experiment: FACS competition on Raji cells (FACS007), inhibition of aggregated IgG binding to cell FcγRIIB at 0.03125 µg/µL SM101
[12] = biological target: aggregated human IgG (aggregated Beriglobin, aggregated fraction isolated by size exclusion chromatography) (human); experiment: apparent KD, Langmuir fit of FACS competition on Raji cells (FACS021)
[13] = biological target: aggregated human IgG (aggregated Beriglobin, aggregated fraction isolated by size exclusion chromatography) (human); experiment: FACS competition on Raji cells (FACS007), inhibition of aggregated IgG binding to cell FcγRIIB at 0.0625 µg/µL SM101
[14] = biological target: aggregated human IgG (aggregated Beriglobin, aggregated fraction isolated by size exclusion chromatography) (human); experiment: FACS competition on Raji cells, mean of 25 experiments
[15] = biological target: aggregated human IgG (aggregated Beriglobin, aggregated fraction isolated by size exclusion chromatography) (human); experiment: apparent KA, Langmuir fit of FACS competition on Raji cells (FACS021)
[16] = biological target: aggregated human IgG (aggregated Beriglobin, aggregated fraction isolated by size exclusion chromatography) (human); experiment: FACS competition on Raji cells (FACS021), inhibition of aggregated IgG binding to cell FcγRIIB at 0.0625 µg/µL
[17] = biological target: aggregated human IgG (aggregated Beriglobin, aggregated fraction isolated by size exclusion chromatography) (human); experiment: apparent KD, FACS competition on Raji cells, mean of tests #1-17 without #4 and #6
[18] = biological target: aggregated human IgG (aggregated Beriglobin, aggregated fraction isolated by size exclusion chromatography) (human); experiment: apparent KD, FACS competition on Raji cells, mean of tests #18-25
[19] = biological target: aggregated human IgG (aggregated Beriglobin, aggregated fraction isolated by size exclusion chromatography) (human); experiment: FACS competition on Raji cells (FACS021), inhibition of aggregated IgG binding to cell FcγRIIB at 0.03125 µg/µL
[20] = biological target: aggregated human IgG (aggregated Beriglobin, aggregated fraction isolated by size exclusion chromatography) (human); experiment: FACS competition on Raji cells (FACS007), inhibition of aggregated IgG binding to cell FcγRIIB at 0.25 µg/µL SM101
[21] = biological target: aggregated human IgG (aggregated Beriglobin, aggregated fraction isolated by size exclusion chromatography) (human); experiment: FACS competition control on Raji cells: constant aggregated Beriglobin, CSA in place of SM101; bound aggregated IgG detected with anti-human IgG(H+L)-PE; interaction tested for blocking: aggregated IgG with membrane-bound FcγRIIB
[22] = SM101 investigational medicinal product

SM101 (soluble human FcγRIIB, sFcγRIIB) (from UniProt P31994 46-217) (receptor)
norm. Signal (% inhibition) [1]: 94.9% | IC50 [2]: 12.9 µg/mL and 16.2 µg/mL | norm. Signal (% inhibition) [3]: 97.3% | IC50 [4]: 17.7 µg/mL | Kd [5]: 980 nM | norm. Signal (% inhibition) [6]: 23.2% | norm. Signal (% inhibition) [7]: 43% | Kd [8]: 530 nM | Kd [9]: 990 nM | Ka [10]: 1.02e+06 M⁻¹ | norm. Signal (% inhibition) [11]: 70.5% | Kd [12]: 740 nM and 900 nM | norm. Signal (% inhibition) [13]: 91.2% | IC50 [14]: 10.6 µg/mL | Ka [15]: 1.35e+06 M⁻¹ and 1.11e+06 M⁻¹ | norm. Signal (% inhibition) [16, 22]: 89.6% | norm. Signal (% inhibition) ([16]; SM101 reference standard): 87.3% | Kd [17]: 680 nM | Kd [18]: 260 nM | norm. Signal (% inhibition) [19, 22]: 75.7% | norm. Signal (% inhibition) ([19]; SM101 reference standard): 75.9% | norm. Signal (% inhibition) [20]: 98.4%

B1: chicken serum albumin (protein, UniProt P19121 24-615, looked up)
Albumin: FARDAEHKSEIAHRYNDLKEETFKAVAMITFAQYLQRCSYEGLSKLVKDVVDLAQKCVANEDAPECSKPLPSIILDEICQVEKLRDSYGAMADCCSKADPERNECFLSFKVSQPDFVQPYQRPASDVICQEYQDNRVSFLGHFIYSVARRHPFLYAPAILSFAVDFEHALQSCCKESDVGACLDTKEIVMREKAKGVSVKQQYFCGILKQFGDRVFQARQLIYLSQKYPKAPFSEVSKFVHDSIGVHKECCEGDMVECMDDMARMMSNLCSQQDVFSGKIKDCCEKPIVERSQCIMEAEFDEKPADLPSLVEKYIEDKEVCKSFEAGHDAFMAEFVYEYSRRHPEFSIQLIMRIAKGYESLLEKCCKTDNPAECYANAQEQLNQHIKETQDVVKTNCDLLHDHGEADFLKSILIRYTKKMPQVPTDLLLETGKKMTTIGTKCCQLGEDRRMACSEGYLSIVIHDTCRKQETTPINDNVSQCCSQLYANRRPCFTAMGVDTKYVPPPFNPDMFSFDEKLCSAPAEEREVGQMKLLINLIKRKPQMTEEQIKTIADGFTAMVDKCCKQSDINTCFGEEGANLIVQSRATLGIGA
Median PE-A of aggregated IgG bound to Raji cells at 0.0156 µg/µL CSA [21]: 3770 | Median PE-A of aggregated IgG bound to Raji cells at 0.03125 µg/µL CSA [21]: 3700 | Median PE-A of aggregated IgG bound to Raji cells at 0.0625 µg/µL CSA [21]: 3830 | Median PE-A of aggregated IgG bound to Raji cells at 0.125 µg/µL CSA [21]: 4140 | Median PE-A of aggregated IgG bound to Raji cells at 0.25 µg/µL CSA [21]: 4570 | Median PE-A of aggregated IgG bound to Raji cells at 0.5 µg/µL CSA [21]: 4940 | Median PE-A of aggregated IgG bound to Raji cells at the CSA concentration labelled 0'078 (0.0078 µg/µL by the series in legend paragraph 80) [21]: 4180

— US20160195541A1
